Data on 16 molecules can be found in patent US20210284724A1 (I MAB BIOPHARMA US, published 2021).

T1: human CXCL13 (human, UniProt O43927 23-109)
T1 construct: also called huCXCL13; rhCXCL13
T1 sequence (looked up): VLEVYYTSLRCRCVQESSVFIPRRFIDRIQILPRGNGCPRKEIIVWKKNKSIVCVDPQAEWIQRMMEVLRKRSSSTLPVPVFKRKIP

T2: mouse CXCL13 (mouse, UniProt O55038 22-109)
T2 construct: also called rmCXCL13
T2 sequence (looked up): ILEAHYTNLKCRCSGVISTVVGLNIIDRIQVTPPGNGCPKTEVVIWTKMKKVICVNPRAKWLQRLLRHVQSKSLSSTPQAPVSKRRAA

T3: cynomolgus CXCL13 (cynomolgus, UniProt H6WS58 23-109)
T3 construct: also called cynoCXCL13; Cyno CXCL13
T3 sequence: T1 sequence (looked up) with S8H, L32S, I52V, M65I, V68M, R72K, L77P

B1: 409G9C2 (antibody, V domains shown)
VH: EVQLQQSGPGLVKPSGTLSLTCAVSGGSITSSYWWTWVRQPPGKGLEWIGEIYHSGRPNYNPSLKSRATISVDKSRNQFSLNLTSVTAADTAVYYCAKTAAVSYWYFDLWGRGTLVTVSS
VL: DIKMNQSPSSMSASLGDRVTITCQASQDIGNDLIWFQQKPGKSPRPLIYYASNLANGVPSRFSGRRSESNYSLTISSLESEDMADYHCLQFKQYPFTFGAGTKLELK
notes: Hybridoma mAb
B2: 410A4D10 (antibody, V domains shown)
VH: EVQLQQSGPGLVRPSGTLSLTCAVSGGSISSRNWWGWVRQPPGKGLEWIGEIYHSGGTNYNPSLKSRVTISVDKSKNQFSLKLSSVTAADTAVYYCAREFGDSVWYFDLWGRGTLVTVSS
VL: B1 VL with K3V, M4I, N5T, I34V, S52T, N56D, N70K, S77N, F96Y
notes: Hybridoma mAb
B3: 156H3H7 (antibody, V domains shown)
VH: EVQLQQSGPELVKPGASVKISCKASGYTFTDYYMNWVRQSHGKSLEWIGDINPNNGDTTYNQKFKGKATLTVDTSSSTVYMELRSLTSEDSAVYYCAGYDEDHYAMDYWGQGTSVTVSS
VL: DYVMTQSHKFMSTSVGDRVSITCKASQDVSTGVAWYQQNPGQSPKLLIYSASHRYTGVPDRFTGSGSGTDFTFTISSVQAEDLAVYYCQQYYTTPWTFGGGTKLEIK
notes: Hybridoma mAb
B4: 168A2D4 (antibody, V domains shown)
VH: EVQLQQSGPELVKPGASVKISCKASGNTLTDYYMNWVKQSHGKSLEWIGDINPNNGDIIYNQKFKGKATLTVAKSSSTAYMELRSLTSEDSAVYYCAIYYDPYYHAMDYWGQGTSVTVSS
VL: B3 VL with Y2I, G16R, N39K, H53Y, Y91Q, T93S, T94V, W96L, G100A, I106L
notes: Hybridoma mAb
B5: 175E3B10 (antibody, V domains shown)
VH: QVTLKESGPGILQPSQTLSLTCSFSEFSLSVFGMGVGWIRQPSGKGLEWLAHIWWDDEKYYNPALKSRLTISKDTSKNQVFLKIANVDTADTATYFCARIDGYYDFDYWGQGTTLTVSS
VL: DVLMTQTPLSLPVSLGTQASIFCRSSHSIVQDNGNTYLQWYLQKPGQSPKLLIYKVSNRFSGVPDRFSGSGSGTDFTLKISRVEAEDLGVYYCFQGSYVPYTFGGGTKLEIK
notes: Hybridoma mAb
B6: 184H10B5 (antibody, V domains shown)
VH: B5 VH with F96Y
VL: B5 VL with F22S, K50Q
notes: Hybridoma mAb
B7: 345G1B4 (antibody, V domains shown)
VH: QVTLKESGPGILQPSQTLSLTCSFSGFSLSTSNMGVGWIRQPSGKGLEWLAHIWWDDVKRYNPALKSRLTISKDTSSSQVFLKIASVDTADTATYYCARSTTLVAFDYWGQGTTLTVSS
VL: DIVMTQSPSSLTVTAGEKVTMSCKSSQSLLNSGNQKNYLTWYQQKPGQPPKLLIYWASTRESGVPDRFTGSGSGTDFTLTISSVQAEDLAVYYCQNDYSYPTFGGGTKLEIK
notes: Hybridoma mAb
B8: 396A5A1 (antibody, V domains shown)
VH: B7 VH with N33G, V36I, V58I, I71V, S77T, K83N, T92I, Y96F, L103V
VL: B7 VL with V3L, S71T, V91I, S99D
notes: Hybridoma mAb
B9: 178E2B3 (antibody, V domains shown)
VH: QVQLQQSGAELVRPGTSVKVSCKASGYAFTNHLIEWVKQRPGQGLEWIGVINPGSGGTKYNEKFKGKATVTADKSSSTVYMQLNSLTSEDSAVYFCARSSDGYYEEDYFDYWGQGTTLTVSS
VL: QIVLTQSPAIMSASPGEKVTMTCSASSSVNYMQWYQQKSGTSPKRWIYDTSELASGVPDRFSGSGSGTSYSLTISSMEAEDVATYYCQQWSSDPITFGAGTKLELK
notes: Hybridoma mAb
B10: 181B11G12 (antibody, V domains shown)
VH: EVKLVESEGGLVQPGSSMKLSCTASGFTFSDYYMAWVRQVPEKGLEWVANINYDGSDTYYLDSLKSRFIISRDNAKNILYLQMSSLKSEDTATYYCVRDVAYDDSYAMDYWGQGTSVTVSS
VL: DIQMTQSPSSLSASLGGKVTITCKASQDINKYIAWYQHKPGKGPRLLIHYTSTLQPGIPSRFSGSGSGRDYSFSISNLEPEDIATYYCLQYDSLYTFGGGTKLEIK
notes: Hybridoma mAb
B11: 168D6F2 (antibody, V domains shown)
VH: QVQLQQPGAELVKPGASVKLSCQASGYTFTSYWMHWVKQRPGRGLEWIGGIDPDSGATKDNEKFKTKATLTVDKPSRTAYIQLSSLTSEDSAVFYCARGSTVVAPGDYFAMDYWGQGTSVTVSS
VL: DIVLTPSPTSLAVSLGQRATMSCRASESVDNYGISFMHWYQQKPGQPPKLLIYRASNLDSGIPARFSASGSRTDFTLTINPVETDDVATYYCQQSNKDPWTFGGGTKLEIK
notes: Hybridoma mAb
B12: 177D2G10 (antibody, V domains shown)
VH: QIALKESGPGILQSSQTLSLTCSFSGFSLSTSGMHVGWFRQPSGKTLEWLAHIYWDDDKRYNPSLKSRLTISKDTSRNQVFLNLTNVDTADTATYYCARRGGDYDYDEGFDYWGQGTTLTVSS
VL: DVVMTQTPLSLPVSLGDQASISCRSSQSLVHSNGFTYLHWYLQKPGQSPKLLIYKVSNRFSGVPDRFSGSGSGTEFTLRISRVEAEDLGVYFCSQSTHVPYTFGGGTKLEIK
notes: Hybridoma mAb
B13: 71F4-B-A (antibody, V domains shown)
VH: EVQLVESGGGLVQPGGSLRLSCAASGIDFSRYWMSWVRQAPGKGLEWVAEINPEASTINYAPSLKDRFTISRDNAKNSLYLQMNSLRAEDTAVYYCARQDDYEYYTMDYWGQGTTVTVSS
VL: DIQMTQSPSSLSASVGDRVTITCKVSQDVNTGVAWYQQKPGKAPKLLIYSASYRYTGVPSRFSGSGSGTDFTFTISSLQPEDIATYYCQQYYSTPLTFGGGTKLEIK
B14: 71F4-B-ASH (antibody, V domains shown)
VH: B13 VH with T57S, E103S, Y104H
VL: B13 VL
B15: 71F4-B-AS (antibody, V domains shown)
VH: B13 VH with T57S
VL: B13 VL
B16: 71F4-B-H (antibody, V domains shown)
VH: B13 VH with A55S, Y104H
VL: B13 VL
notes: also called 71F4A3-B-H

Residue numbers refer to the chain shown, from its start.

In the first test the target is T1, human CXCL13. Kind of test: ELISA, coated antigen.
For the molecule B1, the response was half-maximal at 2.27 µg/mL (EC50).
Same read-out and setting: under B2 stands 2.14 µg/mL; under B3, 0.0134 µg/mL.
B4 registered an EC50 of 0.134 µg/mL.
On to B5, for which the half-maximal effective concentration (EC50) is 0.0326 µg/mL. Compared with the last molecule, the EC50 is about 4.1-fold lower.
Still for that read-out and setting: under B6 stands 0.0272 µg/mL; under B7, 0.0138 µg/mL.
B8 returned an EC50 of 0.0135 µg/mL. The EC50 values of the last two molecules are within 1.5-fold of each other.
As for B9, the concentration giving a half-maximal response (EC50) turned out to be 0.0153 µg/mL. This EC50 and that of the molecule before are within 1.5-fold of each other.
The molecule B10 had an EC50 of 0.0223 µg/mL.
Regarding B11, the 50% effective concentration (EC50) is 0.0218 µg/mL.
B12 registered a half-maximal effective concentration (EC50) of 0.0544 µg/mL.

Another test concerns the target T2, mouse CXCL13. Kind of test: ELISA, coated antigen.
With B1, a half-maximal effect (EC50) was put at 0.538 µg/mL.
The molecule B2 returned an EC50 of 0.761 µg/mL.
Take B3: the binding result was “no binding”.
Turning to B4, the binding result was “no binding”.
On the same count and under the same terms, under B5 stands “no binding”.
Consider B6, for which the binding result is on record as “no binding”.
Regarding B7, the binding result is reported as “no binding”.
Take B8: the binding result is listed as “no binding”.
Take B9: the binding result is recorded as “no binding”.
In the case of B10, the binding result is recorded as “no binding”.
Same read-out and setting: under B11 stands “no binding”; under B12, “no binding”.

For another test, the target named is T3, cynomolgus CXCL13. The test is described as follows: ELISA, coated antigen.
B1: the binding result is recorded as “no binding”.
Same read-out and setting: under B2 stands “no binding”; under B3, “no binding”; under B4, “no binding”.
With B5, the binding result is on record as “no binding”.
With B6, the binding result is on record as “no binding”.
Still for that read-out and setting: under B7 stands “no binding”; under B8, “no binding”.
Still for that read-out and setting: under B9 stands “no binding”; under B10, “no binding”.
As to B11, the binding result was “no binding”.
As to B12, the binding result is “no binding”.

Another test has as its target T1, human CXCL13. Kind of test: cell-based blocking ELISA, CXCL13 to CHO-K1-CXCR5. The protocol:
Splenocytes were electro-fused with mouse myeloma cell line SP2/0 cells and plated into 96-well culture plate. The hybridoma supernatants were tested by ELISA binding assay for anti-human CXCL13 binders. Supernatants of positive binding clones were screened for function in blocking of human CXCL13 binding to its […] CXCR5 by Cell-based receptor blocking ELISA assay. Briefly, 5×10⁴ CHO-K1-CXCR5 cells were plated in 96-well plate with 100 μl of culture medium and incubated at 37° C. overnight. Cells were fixed with 100 μl of 2% PFA at RT for 1 hr after washing with PBS for 1 time. Blocking was done with 1% BSA in PBST for 1 hr at RT. Supernatants were diluted with PBS and pre-incubated with equal volume of 0.3 μg/ml human CXCL13 for 30 min at RT. 100 μl of antibody-antigen complex was then transferred into each cell wells for 30 min at RT. The samples were washed with 1×PBST for 3 times and 100 μl of 3 μg/ml of human Mab5261 antibody was add into each well to capture human CXCL13 and anti-human Fc-HRP was used to indirectly detect human CXCL13 when it bound to CHO-K1-CXCR5 cells. […] Reading was done at […].
Those antibodies were purified from hybridoma supernatants by binding with Protein G column and characterized by ELISA binding assays and cell-based blocking ELISA assays. […] 11/20 clones bound to both human CXCL13 and cynomolgus CXCL13 appeared to completely block human CXCL13 to human CXCR5. 11 blockers bound to both huCXCL13 and cynoCXCL13 were produced as chimeric human IgG1 antibodies for further Characterization.
B1 yielded a 50% inhibitory concentration (IC50) of 11.7 µg/mL.
Still for that read-out and setting: under B2 stands 8.38 µg/mL; under B3, 4.59 µg/mL; under B4, 0.29 µg/mL.
On the same count and under the same terms, under B5 stands 1.42 µg/mL; under B6, 4.85 µg/mL.
Same read-out and setting: under B7 stands 3.24 µg/mL; under B8, 1 µg/mL; under B9, 0.974 µg/mL.
Molecule B10 came in with a half-inhibitory concentration (IC50) of 0.703 µg/mL.
B11 yielded a half-inhibitory concentration (IC50) of 2.09 µg/mL.
The molecule B12 came in with an IC50 of about 912 µg/mL.

In a further test the target is T1, human CXCL13. Kind of test: SPR Biacore T200. As for the experimental part: To further optimization of 71F4-B, each Mutations in 71F4A3 useful for improving binding (Kon) were added into 71F4-B, the sequences were listed in Table 28. Antibodies according to these sequences were generated and affinity testing was performed by Biacore T200.
In turn, B13 came in with a dissociation constant Kd of 388 pM, a koff of 6.82e-05 s⁻¹ and an on-rate (kon) of 176000 M⁻¹ s⁻¹.
Taken in the same sequence, the figures for B14 were 521 pM, 9.17e-05 s⁻¹ and 176000 M⁻¹ s⁻¹.
The corresponding values for B15 are 321 pM, 7.25e-05 s⁻¹ and 226000 M⁻¹ s⁻¹.
Taken in the same sequence, the figures for B16 were 64.7 pM, 1.27e-05 s⁻¹ and 197000 M⁻¹ s⁻¹.
